This note sets out measurements from US5385834.

For data set [1], the target named is T7 RNA polymerase (wild-type) (Bacteriophage T7) (UniProt P00573). The following applies: in vitro transcription, +/-0.003 vs T7 promoter; 80 nM enzyme.
In data set [2] the target is T7 RNA polymerase mutant GP1(lys222) E222K (Bacteriophage T7) (UniProt P00573). The following applies: in vitro transcription, +/-0.008 vs T7 promoter; 40 nM enzyme; may be nonspecific initiation.

Take T3 promoter plasmid pLM10: the activity in data set [1] was found to be 0.009 relative; in data set [2], 0.027 relative.
